Results taken from patent US20050158309A1.
[ ]: non-standard residue; d: D form. pGlu = O=C1CC[C@@H](C(=O)O)N1

Experiments:
[1] = molecular target: KLII-2 antiserum against GnRH-II; experiment: RIA cross-reactivity with antiserum KLII-2 (relative to GnRH-II)
[2] = molecular target: aCII6 polyclonal antibody against GnRH-II; experiment: RIA cross-reactivity with antibody aCII6 (relative to GnRH-II)

cross-reactivity [1]: 0.003%
cross-reactivity [2]: 0.013%
B1: Salmon GnRH (sGnRH) (peptide)
peptide: [pGlu]HWSYGWLPG-NH2
SMILES: CC(C)C[C@H](NC(=O)[C@H](Cc1c[nH]c2ccccc12)NC(=O)CNC(=O)[C@H](Cc1ccc(O)cc1)NC(=O)[C@H](CO)NC(=O)[C@H](Cc1c[nH]c2ccccc12)NC(=O)[C@H](Cc1c[nH]cn1)NC(=O)[C@@H]1CCC(=O)N1)C(=O)N1CCC[C@H]1C(=O)NCC(N)=O
